Measurements published in patent US20220267469A1 (LIPUM, published 2022).

Experiments:
Mouse BSSL, recombinant [1] = biological target: T1, Mouse BSSL, recombinant (mouse, UniProt Q64285 21-599); assay: SPR steady state analysis
T1 construct: Bought (R&D Systems, Cat. no 5658-CE); also called mBSSL; murine BSSL
T1 sequence: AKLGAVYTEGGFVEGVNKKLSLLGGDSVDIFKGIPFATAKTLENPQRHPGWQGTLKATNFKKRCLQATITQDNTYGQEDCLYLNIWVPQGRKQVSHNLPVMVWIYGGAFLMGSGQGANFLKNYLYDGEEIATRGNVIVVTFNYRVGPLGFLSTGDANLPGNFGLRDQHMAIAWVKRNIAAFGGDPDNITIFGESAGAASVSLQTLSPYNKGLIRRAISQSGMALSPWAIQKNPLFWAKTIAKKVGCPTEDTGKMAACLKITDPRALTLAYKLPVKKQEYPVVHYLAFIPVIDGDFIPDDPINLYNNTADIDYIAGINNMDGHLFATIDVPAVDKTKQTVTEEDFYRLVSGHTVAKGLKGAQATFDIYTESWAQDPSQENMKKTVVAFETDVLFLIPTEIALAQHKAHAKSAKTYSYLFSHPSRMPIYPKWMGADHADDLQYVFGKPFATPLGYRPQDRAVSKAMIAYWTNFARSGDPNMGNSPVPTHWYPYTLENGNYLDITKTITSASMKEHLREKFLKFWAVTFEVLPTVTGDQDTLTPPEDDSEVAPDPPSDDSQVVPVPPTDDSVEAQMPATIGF
Procedure: (§1) SPR measurements were performed with a BIACORE® T200 instrument (GE Healthcare). In order to minimize avidity effects, the antibody was immobilized on the sensor surface and BSSL was injected as the analyte. Immobilization of AS20 mlgG1 was performed by amine coupling to a BIACORE® CM5 (carboxylated dextran surface) sensor chip. The chips were activated by injection of a 1:1 mixture of 0.2 M N-ethyl-N′-[(dimethylamino)peopyl]carbodiimide (EDC) and 0.05 M N-hydroxysucciminimde (NHS) with a contact time of 7 minutes. The antibody was injected for 0.2-2.8 minutes diluted to 14-50 μg/ml in 10 mM acetate-HCl pH 5.0 (set one) or pH 6.0 (set two) to reach final immobilization levels of between 560 and 830 RU. Remaining activated carboxyl groups on the sensor surface were deactivated with an injection of 1 M ethanolamine for 7 minutes.
(§2) In the second set of experiments the running buffer was 25 mM TrisHCl, pH 7.5, 150 mM NaCl. 146 mM H₃PO₄ was used as the standard regeneration solution. The kinetic studies and the non-linear regression analysis were made according to the Single Cycle Kinetics (SCK) method of the BIACORE® T200 instrument and evaluation software. The interaction between mBSSL and AS20 mlgG1 was analyzed with steady state affinity model.

Mouse BSSL, recombinant [2] = biological target: T1, Mouse BSSL, recombinant; assay: SPR steady state analysis, antibody immobilised, second set of experiments
Procedure: as §1, §2

[3] = biological target: T2, Human BSSL (bile salt-stimulated lipase), native (human, UniProt P19835 21-753); assay: SPR single cycle kinetics, antibody immobilised, second set of experiments
T2 construct: Native full-length protein purified from human milk (Astra Hässle AB); also called hBSSL; non-biotinylated human BSSL
T2 sequence: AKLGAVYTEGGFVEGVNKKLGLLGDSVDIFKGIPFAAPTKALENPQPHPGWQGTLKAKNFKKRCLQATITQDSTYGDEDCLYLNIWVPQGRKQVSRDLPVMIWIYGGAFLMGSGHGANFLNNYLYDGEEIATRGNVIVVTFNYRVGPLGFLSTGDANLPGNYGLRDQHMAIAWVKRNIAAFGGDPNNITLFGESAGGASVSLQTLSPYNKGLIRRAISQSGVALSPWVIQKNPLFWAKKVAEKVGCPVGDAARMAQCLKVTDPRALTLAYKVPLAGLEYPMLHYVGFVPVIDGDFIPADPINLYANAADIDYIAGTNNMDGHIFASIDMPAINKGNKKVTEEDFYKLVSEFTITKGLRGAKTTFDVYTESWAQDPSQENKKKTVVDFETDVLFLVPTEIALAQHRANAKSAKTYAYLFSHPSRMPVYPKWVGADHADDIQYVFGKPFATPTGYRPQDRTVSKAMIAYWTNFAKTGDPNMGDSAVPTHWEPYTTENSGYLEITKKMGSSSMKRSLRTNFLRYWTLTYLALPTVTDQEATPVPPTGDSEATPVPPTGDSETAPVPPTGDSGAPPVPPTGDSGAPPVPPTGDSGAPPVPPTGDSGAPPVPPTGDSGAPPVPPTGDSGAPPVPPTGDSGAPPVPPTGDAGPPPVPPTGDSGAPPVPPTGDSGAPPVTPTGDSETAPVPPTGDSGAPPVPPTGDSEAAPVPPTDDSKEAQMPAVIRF
Procedure: as §1, §2

Biotinylated human BSSL [4] = biological target: T3, Biotinylated human BSSL (human, UniProt P19835 21-753, Biotinylated on glycosacarides, 30-40 biotin/BSSL); assay: flow cytometry displacement assay; 1.5 ug antibody, 1 ug b-hBSSL
T3 construct: hBSSL biotinylated in house; also called b-hBSSL; human BSSL-biotin
T3 sequence: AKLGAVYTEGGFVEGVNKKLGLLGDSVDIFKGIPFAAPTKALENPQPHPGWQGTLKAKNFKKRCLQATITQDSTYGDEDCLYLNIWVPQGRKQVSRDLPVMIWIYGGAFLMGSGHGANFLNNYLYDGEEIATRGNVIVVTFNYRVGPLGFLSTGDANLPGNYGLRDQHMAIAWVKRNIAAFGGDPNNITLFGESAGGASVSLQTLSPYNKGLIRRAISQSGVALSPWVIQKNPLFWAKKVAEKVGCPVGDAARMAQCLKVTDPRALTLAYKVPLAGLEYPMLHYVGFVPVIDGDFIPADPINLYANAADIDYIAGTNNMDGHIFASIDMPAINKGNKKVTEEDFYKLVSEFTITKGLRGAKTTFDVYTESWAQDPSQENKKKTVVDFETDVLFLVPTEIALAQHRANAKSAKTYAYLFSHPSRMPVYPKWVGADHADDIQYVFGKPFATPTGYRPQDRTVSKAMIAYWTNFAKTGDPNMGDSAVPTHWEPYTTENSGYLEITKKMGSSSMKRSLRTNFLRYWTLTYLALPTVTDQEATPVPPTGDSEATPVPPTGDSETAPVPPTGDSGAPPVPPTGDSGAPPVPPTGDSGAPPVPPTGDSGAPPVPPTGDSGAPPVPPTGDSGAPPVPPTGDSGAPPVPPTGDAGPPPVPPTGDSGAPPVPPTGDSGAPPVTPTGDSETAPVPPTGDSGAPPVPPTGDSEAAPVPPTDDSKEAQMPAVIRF
Outline: (§3)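 Antibody (0.5–3.0 μg per reaction) preincubated with 1 μg biotinylated human BSSL in PBS pH 7.4, 30 min at 4 °C, then with human buffy coat 30 min at 4 °C. After erythrocyte lysis/fixation, bound BSSL on CD14+ monocytes detected by labelled streptavidin via flow cytometry.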

[5] = biological target: T2, Human BSSL (bile salt-stimulated …); assay: SPR single cycle kinetics, antibody immobilised, first set of experiments
Procedure: as §1, §2

Biotinylated human BSSL [6] = biological target: T3, Biotinylated human BSSL; assay: flow cytometry displacement assay; 3.0 ug antibody, 1 ug b-hBSSL
Outline: as §3

Biotinylated human BSSL [7] = biological target: T3, Biotinylated human BSSL; assay: flow cytometry displacement assay; 1.0 ug antibody, 1 ug b-hBSSL
Procedure: (§4) The 28 BSSL-specific hIgG4 antibodies and the five reference antibodies at different concentrations (ranging from 0.5 μg to 3.0 μg per reaction; see Table 10) were added to b-hBSSL (1 μg per reaction, see Table 2) in round-bottom polystyrene tubes, lx PBS (pH 7.4) was added to a final volume of 20 μl and the antibody/b-hBSSL mixtures were incubated for 30 min. at +4° C. to facilitate binding of antibodies to BSSL. Buffy coat (50 μl) was then added to each antibody/b-hBSSL mixture and incubation continued for another 30 min at +4° C. Thereafter, 2 ml of FACS lysing solution (BD Biosciences) was added and the cells were incubated for 10 min at room temperature in order to lyse erythrocytes and fix the white blood cells. The cells were then centrifuged for 5 min. at 200×g, the resulting pellets were washed by adding 2 ml of FACS buffer (1×PBS supplemented with 1% FCS and 0.1% NaN3) and centrifuged again. Finally, the supernatants were discarded and the cells were resuspended in the last drop of liquid, approximately 50 μl.
(§5) 5 μl of BV421-labelled anti-human CD14 (BD Biosciences) and 5 μl of BB515-labelled streptavidin (BD Biosciences) was added to each tube and incubated for 30 min, at +4° C., protected from light. Thereafter, cells were washed twice with FACS buffer, resuspended in 500 μl FACS buffer, and run on BD LSRII flow cytometer (BD Biosciences). Finally, data were analyzed using FlowJo software (BD Biosciences).

Biotinylated human BSSL [8] = biological target: T3, Biotinylated human BSSL; assay: flow cytometry displacement assay; 2.0 ug antibody, 1 ug b-hBSSL
Procedure: as §4, §5

Biotinylated human BSSL [9] = biological target: T3, Biotinylated human BSSL; assay: flow cytometry displacement assay; 0.5 ug antibody, 1 ug b-hBSSL
Procedure: as §4, §5

fold weaker affinity than for human BSSL (Mouse BSSL, recombinant [1]): ~100 fold
Kd (Mouse BSSL, recombinant [2]): 155 nM
Kd [3]: 1.1 nM
koff [3]: 0.00025 s⁻¹
kon [3]: 230000 M⁻¹ s⁻¹
percentage reduction of b-hBSSL binding to CD14+ monocytes (Biotinylated human BSSL [4]): 72%
Kd [5]: 2.8 nM
koff [5]: 0.00027 s⁻¹
kon [5]: 97000 M⁻¹ s⁻¹
percentage reduction of b-hBSSL binding to CD14+ monocytes (Biotinylated human BSSL [6]): 80%
percentage reduction of b-hBSSL binding to CD14+ monocytes (Biotinylated human BSSL [7]): 66%
percentage reduction of b-hBSSL binding to CD14+ monocytes (Biotinylated human BSSL [8]): 74%
percentage reduction of b-hBSSL binding to CD14+ monocytes (Biotinylated human BSSL [9]): 31%
B1: AS20 mouse IgG1 (antibody, V domains shown)
VH: QVQLQQPGAELVKPGASVKMSCKASGYTFTSYNMHWVKQTPGQGLEWIGVIYPGNGDTSYNQKFKGKATLTADKSSSTAYMQLSSLTSEDSAVYYCARDYYGSSPLGYWGQGTTLTVSS
VL: QIVLTQSPAVMSASPGEKVTMTCSASSSISYMHWYQQKPGTSPKRWIYDTSKLASGVPARFSGSGSGTSYSLTISSMEAEDAATYYCHQRSSYPTFGGGTKLEIK
notes: also called AS20 mlgG1; AS20 mIgG1
